The target of test [1] is T1, ancestral Eukaryota CRIPT.
T1 chain: YKQSSV
Description: stopped-flow.

Test [2] has as its target T2, CRIPT (Drosophila melanogaster).
T2 chain: YRQSST
Briefly: ITC.

Test [3] concerns the target T3, CRIPT (Homo sapiens).
T3 chain: YKQTSV
Briefly: stopped-flow.

The target in test [4] is T4, CRIPT (Octopus bimaculoides).
T4 chain: YRQSSV
Briefly: stopped-flow.

Test [5] addresses T5, CRIPT (Hydra vulgaris).
T5 chain: YRQTSC
Description: stopped-flow.

Test [6] addresses T3, CRIPT. Briefly: ITC.
In test [7] the target is T6, CRIPT (Drosophila melanogaster).
T6 chain: YRQS[pS]T
Description: ITC.

The target in test [8] is T7, CRIPT (Drosophila melanogaster).
T7 chain: GKKIMNTKNYKQSST
Description: ITC.

Square brackets hold non-standard residues; d marks the D form. Ends that are not written are not given here. pS = N[C@@H](COP(=O)(O)O)C(=O)O

B1: DLG PDZ3 PDZ3 (protein)
chain: EPRTITIQKGPQGLGFNIVGGEDGQGIYVSFILAGGPADLGSELKRGDQLLSVNNVNLTHATHEEAAQALKTSGGVVTLLAQYRPEEY
In the case of B1, the Kd amounted to 670 nM in test [1] and 27000 nM in test [2].

B2: DLG4 PDZ3 PDZ3 (protein)
chain: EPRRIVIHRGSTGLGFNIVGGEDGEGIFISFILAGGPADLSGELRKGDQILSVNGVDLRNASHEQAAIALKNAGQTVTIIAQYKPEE
Regarding B2, the Kd in test [3] was found to be 395 nM; in test [4], 1240 nM; in test [1], 2180 nM; in test [5], 360 nM; in test [6], 700 nM.

B3: DLG PDZ3 α3 PDZ3-α3 (protein)
chain: REPRTITIQKGPQGLGFNIVGGEDGQGIYVSFILAGGPADLGSELKRGDQLLSVNNVNLTHATHEEAAQALKTSGGVVTLLAQYRPEEYNRFEARI
For the molecule B3, the Kd in test [7] stood at 40000 nM; in test [8], 34000 nM.

The record behind these values is paper PMC7782867 (2020).
